In patent US20230416347A1 (UNIVERSITY OF TENNESSEE RESEARCH FOUNDATION, published 2023):
Numbering of substitutions follows the chain as printed. Names and notes keep the numbering of the source.

Tests used:
Per125 wtATTR extract [1] = biological target: T1, Per125 wtATTR extract (human, UniProt P02766 21-147); assay: plate assay, time-resolved fluorescence (anti-human Fc, streptavidin-europium), 4PL fit
Procedure: (§1) The antibody-peptide conjugate was added to the wells in 2-fold serial dilution starting at 100 nM. For wells containing rVλ6WIL, the antibody-peptide conjugate was added to the wells in 2-fold serial dilution starting at 5 nM.

rVλ6Wil fibrils [2] = biological target: T2, rVλ6Wil fibrils; assay: as above
T2 construct: domain: λ6 variable domain; Synthetic amyloid-like fibrils; also called rVλWIL; rVλ6Wil synthetic fibrils
Procedure: as §1

TAL ALκ liver extract [3] = biological target: T3, TAL ALκ liver extract; assay: as above
T3 construct: Human AL amyloid extract; also called ALκ (TAL); ALκ TAL
Procedure: as §1

KEN hATTR extract [4] = biological target: T4, KEN hATTR extract (human, UniProt P02766 21-147); assay: as above
Procedure: as §1

[5] = biological target: T5, ALλ (BAL) amyloid extract; assay: as above
T5 construct: Human AL amyloid extract; also called human AL (BAL) amyloid extract
Procedure: as §1

[6] = biological target: T6, ALλ (GRA) amyloid extract; assay: as above
T6 construct: also called ALκ(GRA) amyloid extract
Procedure: as §1

SHI ALλ liver extract [7] = biological target: T7, SHI ALλ liver extract; assay: as above
T7 construct: Human AL amyloid extract; also called ALλ (SHI); ALλ SHI extract
Procedure: as §1

[8] = biological target: α-synuclein synthetic amyloid-like fibrils (UniProt P37840 1-140); assay: as above
Procedure: (§2) The mean and standard deviation (SD) of three replicates were calculated and the potency (EC50) was determined following fitting with a sigmoidal four parameter logistic (4PL) equation with logarithmic x-axis (Prism) (FIG. 14). A non-reactive hIgG1 was used as a negative control in a parallel assay (FIG. 13B).

[9] = biological target: Tau 441 synthetic amyloid-like fibrils (UniProt P10636-8 1-441); assay: as above
Sequence of Tau 441 synthetic amyloid-like fibrils (P10636 other isoform, or with tags, fused parts or gaps limits assumed): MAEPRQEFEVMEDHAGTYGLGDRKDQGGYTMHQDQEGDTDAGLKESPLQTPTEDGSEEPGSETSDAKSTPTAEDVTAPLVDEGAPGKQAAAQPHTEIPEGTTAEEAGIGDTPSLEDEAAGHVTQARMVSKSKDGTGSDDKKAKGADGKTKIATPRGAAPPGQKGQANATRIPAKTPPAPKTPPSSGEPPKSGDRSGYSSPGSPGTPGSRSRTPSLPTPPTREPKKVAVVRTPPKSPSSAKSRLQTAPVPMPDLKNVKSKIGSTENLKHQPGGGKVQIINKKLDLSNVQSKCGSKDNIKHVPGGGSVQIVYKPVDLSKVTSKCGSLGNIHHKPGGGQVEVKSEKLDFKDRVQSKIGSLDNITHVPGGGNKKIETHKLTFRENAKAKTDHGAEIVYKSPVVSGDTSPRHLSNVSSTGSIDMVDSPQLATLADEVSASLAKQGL
Procedure: as §2

rVλ6Wil fibrils [10] = biological target: T2, rVλ6Wil fibrils; assay: EuLISA on rVλ6Wil fibrils; plot with two y axes
Per125 wtATTR extract [11] = biological target: T1, Per125 wtATTR extract; assay: pulldown assay
rVλ6Wil fibrils [12] = biological target: T2, rVλ6Wil fibrils; assay: pulldown assay
TAL ALκ liver extract [13] = biological target: T3, TAL ALκ liver extract; assay: pulldown assay
KEN hATTR extract [14] = biological target: T4, KEN hATTR extract; assay: pulldown assay
SNO hATTR extract = SNO hATTR extract (human, UniProt P02766 21-147); assay: pulldown assay
CAB ALκ4 = biological target: T8, CAB ALκ4; assay: pulldown assay
T8 construct: AL amyloid substrate of the pulldown assay

TYL ALλ extract = biological target: T9, TYL ALλ extract; assay: pulldown assay
T9 construct: Human AL amyloid extract; also called ALλ TYL extract

HIG ALκ1 extract = biological target: T10, HIG ALκ1 extract; assay: pulldown assay
T10 construct: Human AL amyloid extract; also called ALκ HIG extract

SHI ALλ liver extract [15] = biological target: T7, SHI ALλ liver extract; assay: pulldown assay
[16] = biological target: Per253 wild type (wt) ATTR extract (human, UniProt P02766 21-147); assay: pulldown assay
[17] = biological target: T11, Len(1-22) monomer peptide (Homo sapiens (Human), UniProt P06312 21-42); assay: SPR, antibody as ligand, peptide as analyte
T11 construct: Analyte in SPR; on beads in the pulldown assay; also called Vκ4(LEN(1-22) beads)
T11 peptide: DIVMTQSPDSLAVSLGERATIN

rVλ6Wil fibrils [18] = biological target: T2, rVλ6Wil fibrils; assay: EuLISA on rVλ6Wil fibrils (FIG. 5A)
rVλ6Wil fibrils [19] = biological target: T2, rVλ6Wil fibrils; assay: EuLISA on rVλ6Wil fibrils (FIG. 5B)
Per125 wtATTR extract [20] = biological target: T1, Per125 wtATTR extract; assay: EuLISA
rVλ6Wil fibrils [21] = biological target: T2, rVλ6Wil fibrils; assay: EuLISA
TAL ALκ liver extract [22] = biological target: T3, TAL ALκ liver extract; assay: EuLISA
SHI ALλ liver extract [23] = biological target: T7, SHI ALλ liver extract; assay: EuLISA

B1: PF.1 (VH9-D54E/VL4-N33S-p5R with VSPSV spacer, perfusion 1) (antibody, human IgG1, kappa)
heavy: not shown
light: DVVMTQSPLSLPVTLGQPASISCRSSQSLVHRSGNTYLHWFQQRPGQSPRLLIYKVSNRFSGVPDRFSGSGSGTDFTLKISRVEAEDVGVYFCFQTTYVPNTFGGGTKLEIKRTVAAPSVFIFPPSDEQLKSGTASVVCLLNNFYPREAKVQWKVDNALQSGNSQESVTEQDSKDSTYSLSSTLTLSKADYEKHKVYACEVTHQGLSSPVTKSFNRGECVSPSVRAQRAQARQARQAQRAQRAQARQARQ
notes: Antibody-peptide fusion, p5R on the light chain through VSPSV; perfusion culture 1 day, cation exchange, over 99% intact; also called VH9-D54E/VL4-N33S-VSPSV-p5R
EC50 (Per125 wtATTR extract [1]): 0.18 nM
EC50 (rVλ6Wil fibrils [2]): 0.15 nM
EC50 (TAL ALκ liver extract [3]): 0.4 nM
EC50 (KEN hATTR extract [4]): 0.45 nM
EC50 [5]: 0.36 nM
EC50 [6]: 0.6 nM
EC50 (SHI ALλ liver extract [7]): 0.32 nM

B2: PF.7 (VH9-D54E/VL4-N33S-VSPSV-p5R collected after 7 days of perfusion culturing) (antibody, human IgG1, kappa)
heavy: not shown
light: B1 light
notes: Same construct as PF.1, perfusion culture for 7 days
EC50 [8]: 127 nM
EC50 [9]: 1300 nM

B3: VH9/VL4 (antibody, V domains shown)
VH: QVQLQESGPGLVKPSETLSLTCTVSGFSLSSYGVSWIRQPPGKGLEWLGVIWGDGSTNYHPNLMSRVTISVDTSKSQVLFKLSSVTAADTAVYYCATLDYWGQGTSVTVSS
VL: DVVMTQSPLSLPVTLGQPASISCRSSQSLVHRNGNTYLHWFQQRPGQSPRLLIYKVSNRFSGVPDRFSGSGSGTDFTLKISRVEAEDVGVYFCFQTTYVPNTFGGGTKLEIK
notes: Humanized 11-1F4; also called VH9/VL4 parent
EC50 (read off the curve) (rVλ6Wil fibrils [10]): ~7 nM
percent bound (Per125 wtATTR extract [11]): 1.36%
percent bound (rVλ6Wil fibrils [12]): 10.4%
percent bound (TAL ALκ liver extract [13]): 0.72%
percent bound (KEN hATTR extract [14]): 0.61%
percent bound (SNO hATTR extract): 0.41%
percent bound (CAB ALκ4): 2.43%
percent bound (TYL ALλ extract): 0.56%
percent bound (HIG ALκ1 extract): 0.19%
percent bound (SHI ALλ liver extract [15]): 0.68%
percent bound [16]: 0.8%
Kd [17]: 43 nM
koff [17]: 0.0026 s⁻¹
kon [17]: 60400 M⁻¹ s⁻¹
EC50 (rVλ6Wil fibrils [18]): 7 nM

B4: chimeric antibody c11-1F4 (antibody, V domains shown)
VH: QVQLKESGPGLVAPSQSLSITCTVSGFSLSSYGVSWVRQPPGKGLEWLGVIWGDGSTNYHPNLMSRLSISKDISKSQVLFKLNSLQTDDTATYYCVTLDYWGQGTSVTVSS
VL: B3 VL with S7T, T14S, Q17D, P18Q, F41Y, Q42L, R44K, R50K, V88L, V90L
notes: Chimeric form of 11-1F4; also called ch11-1F4; chimeric (c) 11-1F4
EC50 (rVλ6Wil fibrils [19]): ~100 nM
EC50 (Per125 wtATTR extract [20]): 381 nM
LogEC50 (Per125 wtATTR extract [20]): 6.42 -log(M)
Max (Per125 wtATTR extract [20]): 71.1
EC50 (rVλ6Wil fibrils [21]): 291 nM
LogEC50 (rVλ6Wil fibrils [21]): 6.54 -log(M)
Max (rVλ6Wil fibrils [21]): 63.9
LogEC50 (TAL ALκ liver extract [22]): ~0.599 -log(M)
Max (TAL ALκ liver extract [22]): ~17800
EC50 (SHI ALλ liver extract [23]): 256 nM
LogEC50 (SHI ALλ liver extract [23]): 6.59 -log(M)
Max (SHI ALλ liver extract [23]): 51.3
EC50 (rVλ6Wil fibrils [18]): ~72 nM

B5: m11-1F4 (antibody, V domains shown)
VH: B4 VH
VL: B3 VL with S7T, T14S, Q17D, P18Q, F41Y, Q42L, R44K, R50K, V88L, V90L
notes: Murine monoclonal antibody; also called murine parent
EC50 (Per125 wtATTR extract [20]): 1880 nM
LogEC50 (Per125 wtATTR extract [20]): 5.72 -log(M)
Max (Per125 wtATTR extract [20]): 209
EC50 (rVλ6Wil fibrils [21]): 543 nM
LogEC50 (rVλ6Wil fibrils [21]): 6.26 -log(M)
Max (rVλ6Wil fibrils [21]): 184
LogEC50 (TAL ALκ liver extract [22]): ~3.03 -log(M)
Max (TAL ALκ liver extract [22]): ~35100
LogEC50 (SHI ALλ liver extract [23]): ~4.45 -log(M)
Max (SHI ALλ liver extract [23]): ~1510

B6: VH9-D54A + VL4 (antibody, V domains shown)
VH: B3 VH with D54A
VL: B3 VL
notes: Humanized 11-1F4 variant
Kd [17]: 2180 nM
koff [17]: 0.000778 s⁻¹
kon [17]: 356 M⁻¹ s⁻¹

B7: VH9-D54S + VL4 (antibody, V domains shown)
VH: B3 VH with D54S
VL: B3 VL
notes: Humanized 11-1F4 variant
Kd [17]: 60.5 nM
koff [17]: 0.000139 s⁻¹
kon [17]: 2300 M⁻¹ s⁻¹

B8: VH9 + VL4-N33E (antibody, V domains shown)
VH: B3 VH
VL: B3 VL with N33E
notes: Humanized 11-1F4 variant
Kd [17]: 106 nM
koff [17]: 0.00131 s⁻¹
kon [17]: 12300 M⁻¹ s⁻¹

B9: VH9-M64A + VL4 (antibody, V domains shown)
VH: B3 VH with M64A
VL: B3 VL
notes: Humanized 11-1F4 variant
Kd [17]: 13.3 nM
koff [17]: 0.00104 s⁻¹
kon [17]: 77900 M⁻¹ s⁻¹

B10: VH9 + VL4-G34A (antibody, V domains shown)
VH: B3 VH
VL: B3 VL with G34A
notes: Humanized 11-1F4 variant
Kd [17]: 30.4 nM
koff [17]: 0.00181 s⁻¹
kon [17]: 59500 M⁻¹ s⁻¹

B11: VH9-D54H + VL4 (antibody, V domains shown)
VH: B3 VH with D54H
VL: B3 VL
notes: Humanized 11-1F4 variant
Kd [17]: 235 nM
koff [17]: 0.00139 s⁻¹
kon [17]: 5930 M⁻¹ s⁻¹

B12: VH9 + VL4-N33H (antibody, V domains shown)
VH: B3 VH
VL: B3 VL with N33H
notes: Humanized 11-1F4 variant
Kd [17]: 56.6 nM
koff [17]: 0.000743 s⁻¹
kon [17]: 13100 M⁻¹ s⁻¹

B13: VH9-D54E + VL4 (antibody, V domains shown)
VH: B3 VH with D54E
VL: B3 VL
notes: Humanized 11-1F4 variant
Kd [17]: 163 nM
koff [17]: 0.00135 s⁻¹
kon [17]: 8280 M⁻¹ s⁻¹

B14: VH9-M64V + VL4 (antibody, V domains shown)
VH: B3 VH with M64V
VL: B3 VL
notes: Humanized 11-1F4 variant
Kd [17]: 21.8 nM
koff [17]: 0.00052 s⁻¹
kon [17]: 23800 M⁻¹ s⁻¹

B15: VH9-D54Q + VL4 (antibody, V domains shown)
VH: B3 VH with D54Q
VL: B3 VL
notes: Humanized 11-1F4 variant
Kd [17]: 256 nM
koff [17]: 0.000997 s⁻¹
kon [17]: 3900 M⁻¹ s⁻¹

B16: VH9-G55A + VL4 (antibody, V domains shown)
VH: B3 VH with G55A
VL: B3 VL
notes: Humanized 11-1F4 variant
Kd [17]: 17.2 nM
koff [17]: 0.000484 s⁻¹
kon [17]: 28200 M⁻¹ s⁻¹

B17: VH9 + VL4-N33A (antibody, V domains shown)
VH: B3 VH
VL: B3 VL with N33A
notes: Humanized 11-1F4 variant
Kd [17]: 88.5 nM
koff [17]: 0.001 s⁻¹
kon [17]: 11300 M⁻¹ s⁻¹

B18: VH9-M64L + VL4 (antibody, V domains shown)
VH: B3 VH with M64L
VL: B3 VL
notes: Humanized 11-1F4 variant
Kd [17]: 22.4 nM
koff [17]: 0.00208 s⁻¹
kon [17]: 93000 M⁻¹ s⁻¹

B19: VH9-M64I + VL4 (antibody, V domains shown)
VH: B3 VH with M64I
VL: B3 VL
notes: Humanized 11-1F4 variant
Kd [17]: 20.7 nM
koff [17]: 0.00192 s⁻¹
kon [17]: 92900 M⁻¹ s⁻¹

B20: VH9-G55V + VL4 (antibody, V domains shown)
VH: B3 VH with G55V
VL: B3 VL
notes: Humanized 11-1F4 variant
Kd [17]: 483 nM
koff [17]: 0.00163 s⁻¹
kon [17]: 3380 M⁻¹ s⁻¹

B21: VH9 + VL4-N33S (antibody, V domains shown)
VH: B3 VH
VL: B3 VL with N33S
notes: Humanized 11-1F4 variant
Kd [17]: 66.9 nM
koff [17]: 0.000954 s⁻¹
kon [17]: 14300 M⁻¹ s⁻¹

B22: VH9 + VL4-N33Q (antibody, V domains shown)
VH: B3 VH
VL: B3 VL with N33Q
notes: Humanized 11-1F4 variant
Kd [17]: 78.4 nM
koff [17]: 0.00104 s⁻¹
kon [17]: 13300 M⁻¹ s⁻¹
